According to patent US7479385B2, “Sugar kinases with expanded substrate specificity and their use” (Wisconsin Alumni Research Foundation, priority 2003, dated 2009):

Key:
[1] = molecular target: T1, E. coli double M173L-Y371H mutant GalK (Escherichia coli, UniProt P0A6T3, M173L/Y371H); experiment: Substrate screen / percent conversion of 45 sugars, M173L-Y371H; format: biochemical
T1 construct: His-tag (concluded from Ni-NTA purification and vector pET15b); made in house
Description: Characterization of GalK Mutants. […] The mutant enzymes were purified by using metal affinity chromatography on Ni-NTA Spin Columns (QIAGEN, Valencia, Calif.) and fractions containing homogenous protein were collected, concentrated and quantified using the Bradford protein assay. The DNS assay was used to assess the substrate specificity of the purified GalK mutants as previously described. […] For each sugar, the DNS assay was used to monitor the reaction progress and control assays in the absence of enzyme or sugar were performed in parallel. Standard curves for each sugar were prepared as described. To assess general percent conversion, each reaction contained 15.0 (M enzyme, 8 mM sugar, 14 mM ATP and 3.5 mM MgCl2. […] For monosaccharide kinetic data determination, the sugar concentration was varied over a range of 1-8 mM, under saturating ATP (14 mM). Reaction progress was assessed via the DNS assay, wherein a change in absorbance at 575 nm as a function of time was obtained and the initial velocity determined by the slope of the linear phase in the progress curve. The kinetic data was analyzed using Enzyme Kinetics Module software (SSPS, Inc., Chicago, Ill.) as previously described.
(§1) Characterization of Engineered E. coli GalK Mutants.

wild-type E. coli GalK = molecular target: T2, wild-type E. coli GalK (Escherichia coli, UniProt P0A6T3); format: biochemical
T2 construct: made in house
T2 sequence (P0A6T3 1-382): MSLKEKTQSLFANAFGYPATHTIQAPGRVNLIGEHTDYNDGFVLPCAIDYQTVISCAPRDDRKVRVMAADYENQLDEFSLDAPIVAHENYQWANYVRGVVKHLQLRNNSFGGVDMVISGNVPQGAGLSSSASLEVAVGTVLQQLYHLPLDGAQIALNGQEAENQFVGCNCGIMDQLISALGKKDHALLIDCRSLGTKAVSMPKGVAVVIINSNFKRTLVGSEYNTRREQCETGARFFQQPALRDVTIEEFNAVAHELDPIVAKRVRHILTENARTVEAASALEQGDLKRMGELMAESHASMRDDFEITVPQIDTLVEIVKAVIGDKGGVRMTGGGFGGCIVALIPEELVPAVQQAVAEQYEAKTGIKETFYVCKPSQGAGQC
Description: (§2) Characterization of GalK Mutants. […] The mutant enzymes were purified by using metal affinity chromatography on Ni-NTA Spin Columns (QIAGEN, Valencia, Calif.) and fractions containing homogenous protein were collected, concentrated and quantified using the Bradford protein assay. The DNS assay was used to assess the substrate specificity of the purified GalK mutants as previously described. […] For each sugar, the DNS assay was used to monitor the reaction progress and control assays in the absence of enzyme or sugar were performed in parallel. Standard curves for each sugar were prepared as described. To assess general percent conversion, each reaction contained 15.0 (M enzyme, 8 mM sugar, 14 mM ATP and 3.5 mM MgCl2. The reactions were incubated at 37° C. for 3 hrs after which the reactions were quenched with MeOH, centrifuged (10 min, 12,000 rpm) and then the supernatant (diluted 20-fold) submitted for LC-MS and MS/MS analysis. For monosaccharide kinetic data determination, the sugar concentration was varied over a range of 1-8 mM, under saturating ATP (14 mM). Reaction progress was assessed via the DNS assay, wherein a change in absorbance at 575 nm as a function of time was obtained and the initial velocity determined by the slope of the linear phase in the progress curve. The kinetic data was analyzed using Enzyme Kinetics Module software (SSPS, Inc., Chicago, Ill.) as previously described.
as §1

L. lactis wild-type GalK = molecular target: T3, L. lactis wild-type GalK (Lactococcus lactis subsp. lactis, UniProt Q9R7D7); details: in vitro; cited from earlier work
T3 sequence (Q9R7D7 1-399): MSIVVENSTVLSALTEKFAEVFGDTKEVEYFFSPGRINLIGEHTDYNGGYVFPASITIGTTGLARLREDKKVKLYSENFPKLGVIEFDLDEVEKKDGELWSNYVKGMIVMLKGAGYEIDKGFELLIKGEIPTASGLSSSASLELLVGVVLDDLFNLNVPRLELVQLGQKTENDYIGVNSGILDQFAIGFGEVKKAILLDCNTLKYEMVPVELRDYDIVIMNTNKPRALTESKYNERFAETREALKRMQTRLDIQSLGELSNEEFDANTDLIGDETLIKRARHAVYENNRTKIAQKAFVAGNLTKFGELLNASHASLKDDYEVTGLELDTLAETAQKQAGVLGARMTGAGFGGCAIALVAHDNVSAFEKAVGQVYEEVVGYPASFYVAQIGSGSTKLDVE

GalK mutant Y371H = GalK mutant Y371H (Escherichia coli, UniProt P0A6T3, Y371H); details: sugar 1-16 mM, saturating ATP (15 mM)
GalK mutant Y371H, sequence (P0A6T3 whole entry Y371H): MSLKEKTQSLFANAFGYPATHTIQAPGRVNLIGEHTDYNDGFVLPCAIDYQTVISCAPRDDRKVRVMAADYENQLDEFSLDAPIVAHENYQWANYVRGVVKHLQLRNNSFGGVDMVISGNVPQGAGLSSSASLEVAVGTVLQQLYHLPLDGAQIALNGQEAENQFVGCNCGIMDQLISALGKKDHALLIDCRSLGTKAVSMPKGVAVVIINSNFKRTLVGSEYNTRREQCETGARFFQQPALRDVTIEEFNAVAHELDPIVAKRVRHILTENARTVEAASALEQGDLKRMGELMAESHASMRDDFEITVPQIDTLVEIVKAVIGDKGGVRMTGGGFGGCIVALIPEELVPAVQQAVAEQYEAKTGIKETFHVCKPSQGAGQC

[2] = system: O=C[C@H](O)C[C@@H](O)[C@H](O)CO; experiment: purified protein, by the assay type; details: other: sugar 1-16 mM, saturating ATP (15 mM)
NC1C(O)OC(CO)C(O)C1O = experiment: purified protein, by the assay type; details: other: sugar 1-16 mM, saturating ATP (15 mM)
O=C(O)C1OC(O)C(O)C(O)C1O = experiment: purified protein, by the assay type; details: other: sugar 1-16 mM, saturating ATP (15 mM)
OCC1OC(O)CC(O)C1O = experiment: purified protein, by the assay type; details: other: sugar 1-16 mM, saturating ATP (15 mM)
CC1OC(O)C(O)C(O)C1O = experiment: purified protein, by the assay type; details: other: sugar 1-16 mM, saturating ATP (15 mM)
NCC1OC(O)C(O)C(O)C1O = experiment: purified protein, by the assay type; details: other: sugar 1-16 mM, saturating ATP (15 mM)
Y371H-M173L GalK = molecular target: T4, Y371H-M173L GalK (Escherichia coli, UniProt P0A6T3, M173L/Y371H); experiment: In vivo conversion of fed unnatural sugars to sugar-1-phosphates in E. coli host overexpressing GalK double mutant; format: cell-based; details: sugar fed at 4 mM to E. coli overexpressing Y371H-M173L GalK, 16° C., 16 hr; fluorescence HPLC after labelling with 50
T4 construct: His-tag (concluded: same plasmid pGalKMLYH in pET-15b whose product was purified on Ni-NTA); expressed in transfected cells; host or cells: E. coli host carrying pGalKMLYH (pET-15b), IPTG-induced at 16 °C
T4 sequence (P0A6T3 whole entry M173L/Y371H): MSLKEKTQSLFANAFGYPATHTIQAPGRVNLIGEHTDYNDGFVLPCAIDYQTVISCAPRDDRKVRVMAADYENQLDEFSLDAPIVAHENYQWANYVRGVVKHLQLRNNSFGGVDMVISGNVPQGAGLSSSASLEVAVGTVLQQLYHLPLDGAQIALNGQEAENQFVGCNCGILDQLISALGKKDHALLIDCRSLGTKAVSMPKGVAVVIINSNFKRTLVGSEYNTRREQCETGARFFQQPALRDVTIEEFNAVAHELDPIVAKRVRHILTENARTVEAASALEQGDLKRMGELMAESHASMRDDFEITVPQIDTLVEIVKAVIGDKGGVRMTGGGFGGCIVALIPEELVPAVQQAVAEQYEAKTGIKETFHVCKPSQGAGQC
Description: FIG. 9. In vivo GalK-catalyzed sugar-1-phosphate production. (a) Experimental overview using 6-azido-6-deoxy-D-galactose (22) as an example: 22 is fed to an E. coli host expressing the M173L-Y371H GalK double mutant and the reactants and products subsequently labeled using a […] with the fluorescent tag 50. (b) HPLC chromatographs of bioconversions: i)22 with Y371H-M173L GalK; ii)46 with Y371H-M173L GalK; iii) 22 with wild-type GalK. MS: 50, calculated for C20H25N3O3S 387.2, found m/z 386.1 [M−H]^−; 51, calculated for C26H37N6O11PS 672.2, found m/z 671.2 [M−H]^−; 52, calculated for C26H36N6O8S 592.2, found m/z 591.2 [M−H]
In Vivo Conversion Analysis. […] The reaction mixture was subsequently centrifuged to remove CuI and the supernatant (diluted 2-fold) directly analyzed by HPLC and LC-MS calculated for C26H37N6O11PS 672.20, found m/z […] 671.20.
To assess the Y371H-M173L GalK-catalyzed in vivo production of unnatural sugar-1-phosphates (FIG. 9a), the unnatural sugars (22 or 46, 4 mM final concentration) were fed to an E. coli host (40 mL culture) which overexpressed the promiscuous GalK. After a designated time, the extracts were analyzed via the specific attachment of a fluorescent tag (50), to both starting material (22 or 46) and desired sugar-1-phosphate products, using 1,3-dipolar cycloaddition. […]

[3] = molecular target: T5, E. coli GalK Y371H mutant (Escherichia coli, UniProt P0A6T3, Y371H); format: biochemical
T5 construct: His-tag (concluded from Ni-NTA purification and vector pET15b); made in house; host or cells: E. coli BL21-Gold (DE3), vector pET15b
T5 sequence (P0A6T3 whole entry Y371H): as the sequence (P0A6T3 whole entry Y371H) above
Description: as §2, §1

[4] = molecular target: T6, E. coli GalK M173L mutant (Escherichia coli, UniProt P0A6T3, M173L); experiment: Substrate screen / percent conversion of 45 sugars, M173L; format: biochemical
T6 construct: His-tag (concluded from Ni-NTA purification and vector pET15b); made in house
T6 sequence (P0A6T3 whole entry M173L): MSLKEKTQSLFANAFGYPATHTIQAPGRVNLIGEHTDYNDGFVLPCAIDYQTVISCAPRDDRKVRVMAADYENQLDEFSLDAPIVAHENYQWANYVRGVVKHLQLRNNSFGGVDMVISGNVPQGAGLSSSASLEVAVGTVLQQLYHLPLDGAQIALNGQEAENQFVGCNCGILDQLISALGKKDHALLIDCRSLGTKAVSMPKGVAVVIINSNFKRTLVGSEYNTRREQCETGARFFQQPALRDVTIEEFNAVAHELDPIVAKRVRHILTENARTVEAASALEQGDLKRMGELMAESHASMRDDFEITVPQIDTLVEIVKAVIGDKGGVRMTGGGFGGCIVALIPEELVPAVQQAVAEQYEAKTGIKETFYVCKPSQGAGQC
Description: as §2, §1

[5] = substrate: OCC1OC(O)CC(O)C1O; experiment: Kinetics and substrate specificity of wild-type GalK with sugar substrates (DNS assay), Table 1; format: biochemical, E. coli; details: other: sugar 1-16 mM, saturating ATP (15 mM)
[6] = substrate: NC1C(O)OC(CO)C(O)C1O; experiment: as above; format: biochemical, E. coli; details: other: sugar 1-16 mM, saturating ATP (15 mM)
[7] = substrate: CC1OC(O)C(O)C(O)C1O; experiment: as above; format: biochemical, E. coli; details: other: sugar 1-16 mM, saturating ATP (15 mM)
[8] = substrate: O=C[C@H](O)C[C@@H](O)[C@H](O)CO; experiment: as above; format: biochemical, E. coli; details: other: sugar 1-16 mM, saturating ATP (15 mM)

T1 sequence (P0A6T3 whole entry M173L/Y371H): as the sequence (P0A6T3 whole entry M173L/Y371H) above

[N-]=[N+]=N[C@H]([C@H](O)[C@@H](O)C=O)[C@H](O)CO [4-azido-4-deoxy-D-galactose (21), 4-azido-4-deoxy-D-galactose]
kinase activity of M173L-Y371H double mutant (in words) [1]: accept | substrate of wild-type E. coli GalK (in words) (wild-type E. coli GalK): not a substrates | conversion / activity with L. lactis wild-type GalK (in words) (L. lactis wild-type GalK): in vitro conversion

O=C[C@@H](O)[C@H](O)[C@@H](O)[C@@H](O)CO [L-Glc (25), L-glucose]
Km (GalK mutant Y371H; read-out: Km, Y371H): 2.7 mM | kcat, Y371H (GalK mutant Y371H): 1.08 s⁻¹

GalK mutant Y371H (Escherichia coli K-12; Y371H)
Km [2]: 10.1 mM | kcat [2]: 1.08 s⁻¹ | kcat/Km [2]: 107 M⁻¹ s⁻¹ | Km (NC1C(O)OC(CO)C(O)C1O): 8.8 mM | kcat (NC1C(O)OC(CO)C(O)C1O): 4.33 s⁻¹ | kcat/Km (NC1C(O)OC(CO)C(O)C1O): 492 M⁻¹ s⁻¹ | Km (O=C(O)C1OC(O)C(O)C(O)C1O): 3.2 mM | kcat (O=C(O)C1OC(O)C(O)C(O)C1O): 0.967 s⁻¹ | kcat/Km (O=C(O)C1OC(O)C(O)C(O)C1O): 302 M⁻¹ s⁻¹ | Km (OCC1OC(O)CC(O)C1O): 4.7 mM | kcat (OCC1OC(O)CC(O)C1O): 3.33 s⁻¹ | kcat/Km (OCC1OC(O)CC(O)C1O): 710 M⁻¹ s⁻¹ | Km (CC1OC(O)C(O)C(O)C1O): 8.0 mM | kcat (CC1OC(O)C(O)C(O)C1O): 1.68 s⁻¹ | kcat/Km (CC1OC(O)C(O)C(O)C1O): 210 M⁻¹ s⁻¹ | Km (NCC1OC(O)C(O)C(O)C1O): 21.3 mM | kcat (NCC1OC(O)C(O)C(O)C1O): 2.48 s⁻¹ | kcat/Km (NCC1OC(O)C(O)C(O)C1O): 117 M⁻¹ s⁻¹

[N-]=[N+]=NC[C@@H](O)[C@H](O)[C@H](O)[C@@H](O)C=O [6-azido-6-deoxy-D-galactose (22), 6-azido-6-deoxy-D-galactose]
kinase activity of M173L-Y371H double mutant (in words) [1]: accept | in vitro yield (conversion) quoted for comparison with in vivo ([1]; in vitro): ~50% | in vitro conversion by M173L-Y371H ([1]; in vitro, in 2 hrs): > 50% | in vivo conversion to sugar-1-phosphate (Y371H-M173L GalK): ~69% | substrate of Y371H (in words) [3]: failed | substrate of wild-type E. coli GalK (in words) (wild-type E. coli GalK): not a substrates | substrate of M173L (in words) [4]: failed

O=C[C@H](O)[C@@H](O)C[C@H](O)CO [4-deoxy-D-galactose (25), 4-deoxy-D-galactose]
conversion / activity with L. lactis wild-type GalK (in words) (L. lactis wild-type GalK): in vitro conversion

B1: wild-type E. coli GalK (Escherichia coli K-12) (protein)
chain: T2 sequence (P0A6T3 1-382)
notes: made in house
Km [5]: 3.6 mM | kcat [5]: 0.5 s⁻¹ | kcat/Km [5]: 138 M⁻¹ s⁻¹ | Km [6]: 2.9 mM | kcat [6]: 0.195 s⁻¹ | kcat/Km [6]: 66.7 M⁻¹ s⁻¹ | Km [7]: 4.9 mM | kcat [7]: 0.0483 s⁻¹ | kcat/Km [7]: 9.83 M⁻¹ s⁻¹ | Km [8]: 6.4 mM | kcat [8]: 0.085 s⁻¹ | kcat/Km [8]: 13 M⁻¹ s⁻¹
